Experimental data as given in US20150344580A1 (MSM PROTEIN TECHNOLOGIES, published 2015).

T1: human chemokine receptor CCR7 (human, UniProt P32248 25-378)
T1 construct: On CHO, BHK, R1610 and Chem-1 transfectants and, natively, on human PBMC and the leukemia lines JVM-13 and CLL-AAT; also called human CCR7; hCCR7
T1 sequence: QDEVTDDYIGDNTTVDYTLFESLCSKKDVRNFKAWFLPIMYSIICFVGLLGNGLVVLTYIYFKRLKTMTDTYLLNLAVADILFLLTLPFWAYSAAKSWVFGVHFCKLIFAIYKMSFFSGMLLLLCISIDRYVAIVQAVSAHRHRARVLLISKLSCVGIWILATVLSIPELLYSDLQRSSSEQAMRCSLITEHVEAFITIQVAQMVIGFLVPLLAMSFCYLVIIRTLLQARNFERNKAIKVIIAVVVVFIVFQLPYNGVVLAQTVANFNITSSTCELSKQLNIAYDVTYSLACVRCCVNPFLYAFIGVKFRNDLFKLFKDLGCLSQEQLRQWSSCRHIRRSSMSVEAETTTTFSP

T2: mouse CCR7 (mouse, UniProt P47774 25-378)
T2 construct: whole, on cells; On CHO-mouse CCR7 cells and on mouse splenocytes; also called mouse CCR7 ortholog
T2 sequence (looked up): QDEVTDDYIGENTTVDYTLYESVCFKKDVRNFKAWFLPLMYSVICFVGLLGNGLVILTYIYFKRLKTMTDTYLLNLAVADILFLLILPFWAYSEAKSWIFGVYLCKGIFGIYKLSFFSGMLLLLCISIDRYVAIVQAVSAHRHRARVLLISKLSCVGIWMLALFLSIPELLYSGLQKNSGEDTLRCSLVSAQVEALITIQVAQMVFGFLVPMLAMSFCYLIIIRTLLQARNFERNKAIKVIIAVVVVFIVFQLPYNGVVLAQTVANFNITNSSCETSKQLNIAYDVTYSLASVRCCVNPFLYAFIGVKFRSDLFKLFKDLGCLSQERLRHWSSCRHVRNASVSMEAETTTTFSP

B1: MSM-R710 (fully human anti-human CCR7 antibody, IgG1) (antibody, V domains shown)
VH: EVQLLESGGGLVQPGGSLRLSCAASGFTFSNYTMHWVRQAPGKGLEWVSGIGPRSGRTYYADSVKGRFTISRDNSKNTLYLQMNSLRAEDTAVYYCARSYAYQYRGFDYWGQGTLVTVSS
VL: EIVLTQSPGTLSLSPGERATLSCRASQSVSSSYLAWYQQKPGQAPRLLIYGASSRATGIPDRFSGSGSGTDFTLTISRLEPEDFAVYYCQSSVTFGQGTKVEIKR
notes: IgG1 format
B2: MSM-R735 (fully human anti-human CCR7 antibody, IgG1) (antibody)
heavy: not shown
light: EIVLTQSPGTLSLSPGERATLSCRASQSVSSSYLAWYQQKPGQAPRLLIYGASSRATGIPDRFSGSGSGTDFTLTISRLEPEDFAVYYCQQGSPVTFGQGTKVEIKRTVAAPSVFIFPPSDEQLKSGTASVVCLLNNFYPREAKVQWKVDNALQSGNSQESVTEQDSKDSTYSLSSTLTLSKADYEKHKVYACEVTHQGLSSPVTKSFNRGEC
notes: IgG1 format; also called R735 Human IgG1

Columns and labels:
[1] = target: T1, human chemokine receptor CCR7; test: flow cytometry titration, BHK cells expressing human CCR7
Description: (§1) The affinity of IgG1 antibodies to human CCR7 was evaluated by measuring mean fluorescence value (MFI) of cells expressing CCR7 in the presence of varying concentration of antibody in question, upon staining of bound to the cells antibodies with a commercial anti-human antibody-PE conjugate. The data of such experiments are depicted in FIGS. 9, 10, and 11. In these experiments binding of some antibodies to parental cells or cells expressing mouse CCR7 was also quantitatively characterized by obtaining EC₅₀ value (a concentration of IgG1 at which half-maximum MFI is achieved) for each curve using the SoftMaxPro5 program.

[2] = target: T1, human chemokine receptor CCR7; test: cell-based or functional assay
mouse CCR7 [3] = target: T2, mouse CCR7; test: flow cytometry, mouse CCR7 cells (summary table)
[4] = target: T1, human chemokine receptor CCR7; test: flow cytometry, human CCR7 cells (summary table)
[5] = target: T1, human chemokine receptor CCR7; test: flow cytometry titration, CCR7-expressing CHO cells; antibody not heat-treated
[6] = target: T1, human chemokine receptor CCR7; test: flow cytometry titration, CHO-human CCR7 cells
Description: as §1

[7] = target: T1, human chemokine receptor CCR7; test: flow cytometry titration, human CCR7-expressing CHO cells
[8] = target: T1, human chemokine receptor CCR7; test: flow cytometry titration, CCR7-expressing CHO cells; antibody kept 12 h at 40 C
mouse CCR7 [9] = target: T2, mouse CCR7; test: flow cytometry titration, CHO cells expressing mouse CCR7
[10] = target: T1, human chemokine receptor CCR7; test: flow cytometry titration, cells expressing CCR7; before storage (unit from the axis, nM)
mouse CCR7 [11] = target: T2, mouse CCR7; test: flow cytometry titration, CHO-mouse CCR7 cells
Description: as §1

[12] = target: T1, human chemokine receptor CCR7; test: flow cytometry titration, cells expressing CCR7; after 4.5 months at 4 C (unit from the axis, nM)

| Binder | EC50 [1] | EC50 of killing of JVM-13 cells with Fab-ZAP [2] | IC50 of decrease in cell viability with human Fab-ZAP, JVM-13 cells [2] | IC50 of inhibition of Ca-flux induced by 15 nM CCL19, Chem-1 CCR7 human cells [2] | EC50 (mouse CCR7 [3]) | EC50 [4] | EC50 [5] | EC50 [6] | EC50 [7] | EC50 [8] | EC50 (mouse CCR7 [9]) | EC50 [10] | EC50 (mouse CCR7 [11]) | EC50 [12] |
| --- | --- | --- | --- | --- | --- | --- | --- | --- | --- | --- | --- | --- | --- | --- |
| B1 | 3.8 nM |  |  |  |  |  |  |  |  |  |  |  |  |  |
| B2 |  | 19 nM | ~1.2 nM | 67 nM | 1 nM | 4 nM | 3 nM | 0.7 nM | 3.7 nM | 3.1 nM | 2.4 nM | 2.47 nM | ~642 nM | 2.06 nM |
